Assay: yeast display, Sf9 membrane polyspecificity reagent, FACS + sequencing; frameworks hold sequencing errors
Summary of the method: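 Sorting gates, low and high (top ~1%), were placed on anti-HA fluorescence to track expression and on streptavidin fluorescence to track reagent binding. A clone's polyreactivity label is taken from the gate it came out of. The reagent was 10% biotinylated, detergent-solubilized Sf9 membrane, applied for 1 hour at 4 °C to galactose-induced yeast display cells.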

| Sequence | polyreactivity (PSR sort gate) |
| --- | --- |
| QVQLVESGGGLVQAGGSLRLSCAASGSIFYQYAMGWYRQAPGKERELVAGITWSGGSTYYADSVKGRFTISRDNAKYTVYLQMNSLKPEDTAVFYCAAQYFWYVYSYDYWGQGTQVTVSS | high polyreactivity |
| QVQLVESGGGLVQAGGSLRLSCAASGSIFYQYAMGWYRQAPGKERELVARIRGSTGTTYYADSVKGRFTFSRDYAKNTVYLQMNSLKPEDNAVYYCNAARYQGRSRFDYWGQGTQVTVSS | high polyreactivity |
| QVQLVESGGGLVQAGGSLRLSCAASGSIFYRNAMGWYRQAPGKERELVAAISSDGSTNYADSVKVRFTISRDNAKNTVYLQMNSLKPEDTAVYYCAAPWTQILDYWGQGTQVTVSS | low polyreactivity |
| QVQLVESGGGLVQAGGSLRLSCAASGSIFYRNAMGWYRQAPGKERELVAAISWSGSRTYYADSVKGRFTISRDNAKNTVYLQMNSLKPEDTAVYYCNRQYNQWIHYYYRMDYWGQGTQVTVSS | high polyreactivity |
| QVQLVESGGGLVQAGGSLRLSCAASGSIFYRYAMGWYRQAPGKERELVAAISDRSGSTYYADSVKGRFTISRDNAKNTVYLQMNSLKPEDTAVYYCAAAYNYRAAGYGLSRYYYWGQGTQVTVSS | high polyreactivity |
| QVQLVESGGGLVQAGGSLRLSCAASGSIFYRYAMGWYRQAPGKERELVAAISSNGVSTYYADSVKGRFTISRDNAKNTVYLQMNSLKPEDTAVYYCARDVYASPRLYTSRYNYWGQGTQVTVSS | low polyreactivity |
| QVQLVESGGGLVQAGGSLRLSCAASGSIFYRYAMGWYRQAPGKERELVASISKSGGSTYYADSVKGRFTISRDNAKNTVYLQMNSLKPEDTAVYYCAKKPRGTVYRFDYWGQGTQVTVSS | high polyreactivity |
| QVQLVESGGGLVQAGGSLRLSCAASGSIFYRYAMGWYRQAPGKERELVASISSGVSTNYADSVKGRFTISRDNAKNTVYLQLNSLKPEDTAVYYCAVRHRYTRAYWGRDYWGQGTQVTVSS | low polyreactivity |
| QVQLVESGGGLVQAGGSLRLSCAASGSIFYRYAMGWYRQAPGKERELVATISSGGRTYYADSVKGRFTISRDNAKNTVYLQMNSLKPEVTAVYYCAAKRFSSPYWEYYWGQGTQVTVSS | high polyreactivity |
| QVQLVESGGGLVQAGGSLRLSCAASGSIFYRYAMGWYRQAPGKVRELVAAINNGGGRTYADSVKGRFTISRDNAKNTVYFQMNSLKPEDTAVYYCAKRTSRLAPYDYWGQGTQVTVSS | high polyreactivity |
| QVQLVESGGGLVQAGGSLRLSCAASGSIFYRYAMGWYRQGPGKERELVAGITRGGSTNYADSVKGRFTISRDNAMNTVYLQMNSLKPEDTAVYYCAARSYVYVHYYYWGQGTQVTVSS | high polyreactivity |
| QVQLVESGGGLVQAGGSLRLSCAASGSIFYRYSMGWYRQAPGKEREFVAAITWSGGSTYYADSVKGRFTISRDNAKNTVYLQMNSLKPEDTAVYYCAKDSGSYRVGIYEPFPYGYWGQGTQVTVSS | low polyreactivity |
| QVQLVESGGGLVQAGGSLRLSCAASGSIFYSNAMGWSRQAPGKEREFVAAISAGGGSTYYADSVKGRFTISRDNATNTVYLQMISLKPEDTAVYYCAADYFYPYYGAMDYWGQGTQVTVSS | low polyreactivity |
| QVQLVESGGGLVQAGGSLRLSCAASGSIFYSNAMGWYRQAPGKEREFVAAISAGGGSTYYADSVKGRFTISRDNAKNTVYLQMNSLKPEDTAVYYCAATDEYYIQVWFPYDYWGQGTQVTVSW | low polyreactivity |
| QVQLVESGGGLVQAGGSLRLSCAASGSIFYSNAMGWYRQAPGNERELVAAITYRGGRTYYADSVKGRFTISRDNAKNTVYLQKNSLKPEDTAVDYCAKVVRAQALDSIYNGRYDYWGEGTQVTVSS | low polyreactivity |
| QVQLVESGGGLVQAGGSLRLSCAASGSIFYSNAMVWYRQAPGKEREFVAAISTSAGRTYYADSVKGRFTISRDNAKNKVYLQLNSLNPEDTEVYYCAAGTNYGKLRIRFDYWGQGTQVTVSS | low polyreactivity |

| Sequence | polyreactivity (PSR sort gate) |
| --- | --- |
| QVQLVESGGGLVQAGGSLRLSCAASGSIFYSNTMGWYRQAPGKERELVAAISSSSGRTYYADSVKGRFTISRDNAKNTGFLQMNSLKPEDTAVYYCARRYGWGQGTQVTVSS | high polyreactivity |
| QVQLVESGGGLVQAGGSLRLSCAASGSIFYSYAMGWYRQAPGKARELVATISWAGGRTNYADSVKGRFTISRDNAKNTEYLQMNSLKPEDTAVSYCNKPFPYYPDGPNGYDYWGQGTQVTVSS | low polyreactivity |
| QVQLVESGGGLVQAGGSLRLSCAASGSIFYSYAMGWYRQAPGKERELVAAISWDASTYYADSVKGRFTISRDNAKNTVDLQMNSLKPEDTAVYYCNKRWFAPPPYSYVRSYDYWGQGTQVTVSS | low polyreactivity |
| QVQLVESGGGLVQAGGSLRLSCAASGSIFYSYMGWYRQAPGKERECVAAINQRGSSTYYADSVKGRFTISRDNAKNTVYLQMNSLKPEDTAVYDCAAVFFGVYTSRRYYWGQGTQVTVSS | high polyreactivity |
| QVQLVESGGGLVQAGGSLRLSCAASGSIFYTNAMGWYRQAPGKERELVAAIRWSGGRTYYADSVKGRFTISRDNAKNTVYLQMNSLKPEDTAVYYCNVVVRYPSAYDYWGQGTQVTVSS | high polyreactivity |
| QVQLVESGGGLVQAGGSLRLSCAASGSIFYTNAMGWYRQAPGKERELVAAITNGSSTNYADSVKGRFTISRDNAKNTVYLQMNSLNPEDTAVYYCAKYFGNYSIYDYWGQGTQVTVSS | low polyreactivity |
| QVQLVESGGGLVQAGGSLRLSCAASGSIFYTNAMGWYRQAPGKERELVAAITRTGSTNYADSVKGRFTISRDNAKNTVYLQMNSLKPEDTAVYYCNARRYYRYGYWGQGTQVTVSS | high polyreactivity |
| QVQLVESGGGLVQAGGSLRLSCAASGSIFYTNAMGWYRQAPGKERELVAAITWSGGRTYYADSVKGRFTISRDIAKNTVYLQMNSLKPEDTAVYYCNREGWHYGPYGYWGQGTQVTVSS | low polyreactivity |
| QVQLVESGGGLVQAGGSLRLSCAASGSIFYTNAMGWYRQAPGKERELVATITSSTGSTNYADSVKGRFTISRDNAKNTVYLQMNSLKPEDTAVYYCAKRDCYWVYYQMDYWGQGTQVTVSS | low polyreactivity |
| QVQLVESGGGLVQAGGSLRLSCAASGSIFYTNVMGWYRQAPGKERELVARIDSGGSTNYADSVKGRFTISRDNAKNTVFLQMNSLNPEDTAVYYCAADWYIYDYWGQGTQVTVSS | low polyreactivity |
| QVQLVESGGGLVQAGGSLRLSCAASGSIFYTNVMGWYRQAPGKERELVAVISSGGSTYYADSVKGRFTISRDNAKNTVYFQMNSLKPEDTAGYYCNADSVSSPPYYDYWGQGTQVTVSS | high polyreactivity |
| QVQLVESGGGLVQAGGSLRLSCAASGSIFYTYAMGWYRQAPGKERELVAAINWSGGRTYYADSVKGRFTISRDNAKNTVYLQMNSLTPEDTAVYSCAARRGRSWGGFDYWGQGTQVTVSS | low polyreactivity |
| QVQLVESGGGLVQAGGSLRLSCAASGSIFYTYTMGWYRQAPGKERELVAAISRGGRTYYADSVKGRFTISRDNAKNTVYLQMNSLKPEDTAVYYCAAYGYGSWGQGTQVTVSS | high polyreactivity |
| QVQLVESGGGLVQAGGSLRLSCAASGSIFYVNAMGWYRQAPGKERELVAAISYRGGSTYYADSVKGRFTISRDNAKNTVYLQMNSLKPEDTAVYYCAARGYYRPSQTTGRIKYDYWGQGTQVTVSS | high polyreactivity |
| QVQLVESGGGLVQAGGSLRLSCAASGSIFYVNGMGWSRQAPGKERELVARITLSGTSTYYADSVKGRFTISRDNAKNTVYLQMNSLKPEDTAVYYCAAPYFTYGQDDDDYWGQGTQVTVSS | low polyreactivity |
| QVQLVESGGGLVQAGGSLRLSCAASGSIFYVYAMGRYRQAPGKERELVASINKSGGSTYYADSVKGRFTISRDNAKNTVYLQMNSLKPEDTAVYYCAARTGWPRVGFQYPAHVGFDYWGQGTQVTVSS | low polyreactivity |

From the nanobody polyreactivity screen of Harvey et al. (2022)
